Read-outs that look alike come from different tables or passages of the source.

Usually Kd stands for the equilibrium constant for the complex coming apart.

Test [1] deals with His-tagged hCGN Rod2 (667–1203), purified (human) (UniProt Q9P2M7). As to the kind of experiment: MST; labelled target His-tagged hCGN Rod2 (red tris-NTA dye, 200 nM); ligands hNM2A rod or hNM2B rod 0–10,000 nM; PBS with 0.05% Tween 20; Monolith NT.115 fit; n = 7.
Test [2] has as its target T1, His-tagged mZU5 (1520–1745) (mouse, UniProt P39447 1520-1745).
T1 construct: mouse ZO-1, residues 1520-1745 (ZU5-containing region); Labelled with the red tris-NTA dye through its His tag in the MST; also called ZU5-containing region of mZO-1 (residues 1520–1745); ZU5-containing fragment
T1 sequence (looked up): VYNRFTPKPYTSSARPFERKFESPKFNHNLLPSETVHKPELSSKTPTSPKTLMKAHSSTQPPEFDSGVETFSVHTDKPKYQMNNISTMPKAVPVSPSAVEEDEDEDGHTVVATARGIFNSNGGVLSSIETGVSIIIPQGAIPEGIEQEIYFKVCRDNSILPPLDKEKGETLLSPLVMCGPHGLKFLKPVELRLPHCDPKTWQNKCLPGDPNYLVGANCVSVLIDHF
Briefly: MST; labelled target His-tagged mZU5 (1520–1745; red tris-NTA dye, 50 nM); GST-mCGN (1–112) or GST-mCGNL1 (1–122) 0–1,000 nM in PBS-T; Monolith NT.115 fit; n = 5.

Test [3] addresses T2, full-length hCGNL1 (10xHis-2xStrep), purified (human, UniProt Q0VF96 1-1302).
T2 construct: human paracingulin (CGNL1), 1–1,302aa, in pACEBac1; the plasmid list prints this construct as 'hCGN-FL-10xHis-2xStrep (1–1,302aa; S2518)'; also called His-tagged full-length CGNL1; purified CGNL1; source: baculovirus-infected insect cells, purified (StrepTag resin)
T2 sequence (looked up): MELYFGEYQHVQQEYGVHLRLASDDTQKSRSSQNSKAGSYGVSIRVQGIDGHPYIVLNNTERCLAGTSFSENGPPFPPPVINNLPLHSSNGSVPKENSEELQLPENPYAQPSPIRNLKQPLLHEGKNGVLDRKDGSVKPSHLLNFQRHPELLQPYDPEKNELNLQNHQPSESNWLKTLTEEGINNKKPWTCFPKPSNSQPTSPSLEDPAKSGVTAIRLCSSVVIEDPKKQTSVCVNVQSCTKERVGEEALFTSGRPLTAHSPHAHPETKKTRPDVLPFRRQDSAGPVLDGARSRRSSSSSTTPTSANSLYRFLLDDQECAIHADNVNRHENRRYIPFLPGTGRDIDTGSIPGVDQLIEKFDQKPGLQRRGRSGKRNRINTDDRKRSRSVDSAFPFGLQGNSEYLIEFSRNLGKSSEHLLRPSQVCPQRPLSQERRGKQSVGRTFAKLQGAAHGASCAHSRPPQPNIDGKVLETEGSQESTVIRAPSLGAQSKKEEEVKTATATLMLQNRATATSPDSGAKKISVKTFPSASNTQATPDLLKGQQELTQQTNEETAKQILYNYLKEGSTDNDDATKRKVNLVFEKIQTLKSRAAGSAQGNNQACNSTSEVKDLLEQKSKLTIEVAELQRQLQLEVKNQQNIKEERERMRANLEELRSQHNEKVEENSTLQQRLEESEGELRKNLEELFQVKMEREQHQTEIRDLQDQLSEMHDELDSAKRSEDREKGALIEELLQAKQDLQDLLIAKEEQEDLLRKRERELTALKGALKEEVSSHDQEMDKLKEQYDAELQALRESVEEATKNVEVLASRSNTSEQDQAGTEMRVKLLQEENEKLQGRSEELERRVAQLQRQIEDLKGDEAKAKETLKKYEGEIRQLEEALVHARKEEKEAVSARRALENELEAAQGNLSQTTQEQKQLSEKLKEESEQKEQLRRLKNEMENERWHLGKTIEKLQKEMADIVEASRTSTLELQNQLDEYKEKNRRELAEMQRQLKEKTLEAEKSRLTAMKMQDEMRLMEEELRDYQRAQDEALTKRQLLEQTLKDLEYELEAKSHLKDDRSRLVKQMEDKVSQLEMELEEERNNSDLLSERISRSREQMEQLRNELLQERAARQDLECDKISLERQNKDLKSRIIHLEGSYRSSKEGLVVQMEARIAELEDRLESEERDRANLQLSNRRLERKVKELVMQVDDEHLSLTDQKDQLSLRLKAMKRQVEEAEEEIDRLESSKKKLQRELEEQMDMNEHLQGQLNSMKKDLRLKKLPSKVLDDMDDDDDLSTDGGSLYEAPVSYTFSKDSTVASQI
Briefly: pull-down; affinity purified GST-tagged cNM2A, cNM2B, cNM2C rod fragments as baits; His-tagged full-length CGN and CGNL1 purified from baculovirus-infected insect cells as preys; IB with anti-His (Fig. 1 H–J). The note with it: both partners purified.

Test [4] addresses T3, CGNL1 (Mus musculus (Mouse), UniProt Q6AW69).
T3 chain: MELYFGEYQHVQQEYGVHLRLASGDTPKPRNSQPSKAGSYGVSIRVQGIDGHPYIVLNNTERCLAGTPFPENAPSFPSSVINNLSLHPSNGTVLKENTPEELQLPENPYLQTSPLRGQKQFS
Briefly: MST, GST-fusion ligands (GST dimer).

Test [5] concerns the target T4, CGN (Mus musculus (Mouse), UniProt P59242).
T4 chain: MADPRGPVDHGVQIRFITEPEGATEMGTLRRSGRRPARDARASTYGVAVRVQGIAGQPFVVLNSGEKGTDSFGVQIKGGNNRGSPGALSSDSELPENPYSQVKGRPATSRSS
As to the kind of experiment: MST, GST-fusion ligands (GST dimer).

His-tagged hCGN Rod2 (667–1203), purified (human), sequence (Q9P2M7 667-1203): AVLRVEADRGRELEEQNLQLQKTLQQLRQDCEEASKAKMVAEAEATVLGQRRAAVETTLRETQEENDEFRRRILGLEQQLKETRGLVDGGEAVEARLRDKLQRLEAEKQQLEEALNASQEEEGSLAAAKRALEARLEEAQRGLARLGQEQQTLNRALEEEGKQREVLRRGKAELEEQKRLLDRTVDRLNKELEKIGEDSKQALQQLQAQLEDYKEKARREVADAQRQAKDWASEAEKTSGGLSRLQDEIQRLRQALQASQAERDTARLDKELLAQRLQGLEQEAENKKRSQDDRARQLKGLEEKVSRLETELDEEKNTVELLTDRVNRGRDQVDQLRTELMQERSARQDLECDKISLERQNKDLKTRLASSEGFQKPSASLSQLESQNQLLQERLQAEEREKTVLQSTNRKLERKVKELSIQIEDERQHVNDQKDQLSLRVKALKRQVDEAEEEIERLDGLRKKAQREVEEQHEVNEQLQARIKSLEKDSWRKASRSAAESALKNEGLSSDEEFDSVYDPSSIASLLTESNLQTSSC

The molecule “hNM2B rod (1337–1976), purified (from UniProt P35580 1337-1976) (domain or fragment)” gave a Kd in test [1] of 346 nM. This counts as sub-micromolar. On to “hNM2A rod (1330–1960), purified (from UniProt P35579 1330-1960) (domain or fragment)”, for which the Kd in test [1] worked out at 3620 nM. Consider “GST-mCGN (1–112) (from UniProt P59242 1-112) (domain or fragment)”, for which the Kd in test [2] was 7.7 nM.

B1: GST-cNM2A (1711–1960) (domain or fragment, canis (dog), UniProt Q258K2 1711-1960, looked up)
chain: ANSSGKGALALEEKRRLEARIAQLEEELEEEQGNTELVNDRLKKANLQIDQINTDLNLERSHAQKNENARQQLERQNKELKVKLQEMEGTVKSKYKASITALEAKIAQLEEQLDNETKERQAACKQVRRAEKKLKDVLLQVDDERRNAEQFKDQADKASTRLKQLKRQLEEAEEEAQRANASRRKLQRELEDATETADAMNREVSSLKNKLRRGDLPFVVPRRVARKGAGDCSDEEVDGKADGAEAKAAE
notes: canis nonmuscle myosin-2A heavy chain, rod and tail fragment 1711-1960; also called last 250 residues of NM2A; not shown: GST, N-terminal, kept
Turning to B1, the binding result in test [3] is recorded as “binds”.

B2: ZO1 (protein)
chain: EDEDEDGHTVVATARGIFNSNGGVLSSIETGVSIIIPQGAIPEGIEQEIYFKVCRDNSILPPLDKEKGETLLSPLVMCGPHGLKFLKPVELRLPHCDPKTWQNKCLPGDPNYLVGANCVSVLIDHF
On to B2, for which the values for the Kd in test [4] and in test [5] were 79.8 nM and 7.7 nM, respectively.

B3: GST-mCGNL1 (1–122) (domain or fragment)
chain: MELYFGEYQHVQQEYGVHLRLASGDTPKPRNSQPSKAGSYGVSIRVQGIDGHPYIVLNNTERCLAGTPFPENAPSFPSSVINNLSLHPSNGTVLKENTPEELQLPENPYLQTSPLRGQKQFS
In test [2] (both partners purified), B3 returned a Kd of 79.8 nM.

B4: GST-cNM2A (1461–1960) (domain or fragment, canis (dog), UniProt Q258K2 1461-1960, looked up)
chain: AEERDRAEAEAREKETKALSLARALEEAMEQKAELERLNKQFRTEMEDLMSSKDDVGKSVHELEKSKRALEQQVEEMKTQLEELEDELQATEDAKLRLEVNLQAMKAQFERDLQGRDEQSEEKKKQLVRQVREMEAELEDEKKQRSMAVAARKKLEMDLKDLEAHIDSANKNRDEAIKQLRKLQAQMKDCVRELDDTRASREEILAQAKENEKKMKSMEAEMIQLQEELAAAERAKRQAQQERDELADEIANSSGKGALALEEKRRLEARIAQLEEELEEEQGNTELVNDRLKKANLQIDQINTDLNLERSHAQKNENARQQLERQNKELKVKLQEMEGTVKSKYKASITALEAKIAQLEEQLDNETKERQAACKQVRRAEKKLKDVLLQVDDERRNAEQFKDQADKASTRLKQLKRQLEEAEEEAQRANASRRKLQRELEDATETADAMNREVSSLKNKLRRGDLPFVVPRRVARKGAGDCSDEEVDGKADGAEAKAAE
notes: canis nonmuscle myosin-2A heavy chain, rod fragment 1461-1960; also called NM2A rod bait, last ≈500 residues; not shown: GST, N-terminal, kept
In the case of B4, the binding result in test [3] is “binds”.
